Experimental data as given in patent publication US20200308267A1 (Boehringer Ingelheim, published 2020).
Like-named read-outs stand apart in the source and are kept apart here.

T1: recombinant mouse VEGF164 (mouse, UniProt Q00731-2 27-190, biotinylated in the AlphaScreen)
T1 construct: also called mVEGF164; rmVEGF164
T1 sequence (looked up): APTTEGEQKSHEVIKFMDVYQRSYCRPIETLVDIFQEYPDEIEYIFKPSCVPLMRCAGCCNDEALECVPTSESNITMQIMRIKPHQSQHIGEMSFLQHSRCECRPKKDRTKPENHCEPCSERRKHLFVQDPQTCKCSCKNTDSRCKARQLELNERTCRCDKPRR


How the values were obtained:
[1] = target: VEGF; assay: cell-based or functional assay
[2] = target: VEGF; assay: cell-based or functional assay; remark: listed apart in the source
[3] = target: VEGF; assay: cell-based or functional assay; remark: listed apart in the source
[4] = target: T2, recombinant human VEGF165 (human, UniProt P15692-4 27-191, biotinylated (Sulfo-NHS-LC-Biotin) in the competition assays); assay: SPR Biacore T100, VEGF165 chip, Two State Reaction fit
T2 construct: also called hVEGF165; rhVEGF165
Description: Samples are injected for 2 min and allowed to dissociate up to 20 min at a flow rate of […]. In between sample injections, the chip surface is regenerated with 100 mM HCl. HBS-EP+(Hepes buffer pH7.4+EDTA) is used as running buffer. Binding curves are fitted using a Two State Reaction model by Biacore T100 Evaluation Software v2.0.1.
^{(a)}Heterogeneous binding curve resulting in no 1:1 fit, curves are fitted using a Two State Reaction model by Biacore T100 Evaluation Software v2.0.1

[5] = target: T2, recombinant human VEGF165; assay: Biacore, periplasmic extract, VEGF165 chip, two phase decay fit; set-up: unit not given here
Description: Dissociation rates of inhibitory VHHs are analyzed on Biacore (Biacore T100 instrument, GE Healthcare). HBS-EP+ buffer is used as running buffer and experiments are performed at 25° C. […] After immobilization, surfaces are deactivated with 10 min injection of 1 M ethanolamine pH8.5. A reference surface is activated and deactivated with respectively EDC/NHS and ethanolamine. Periplasmic extracts of VHHs are injected at a 10-fold dilution in running buffer for 2 min at 45 μl/min and allowed to dissociate for 10 or 15 min. Between different samples, the surfaces are regenerated with regeneration buffer. Data are double referenced by subtraction of the curves on the reference channel and of a blank running buffer injection. […] is evaluated by fitting a two phase decay model in the Biacore T100 Evaluation software v2.0.1.

[6] = target: VEGF; assay: cell-based or functional assay; remark: listed apart in the source
[7] = target: VEGF; assay: cell-based or functional assay; remark: listed apart in the source
[8] = target: T1, recombinant mouse VEGF164; assay: binding ELISA, coated rmVEGF164
Description: Cross-reactivity to mouse VEGF164 is determined using a binding ELISA. […] Wells are blocked with a casein solution (1% in PBS). […] A mouse VEGF164 reactive mAb is included as positive control.

Sequence of VEGF (P15692 whole entry): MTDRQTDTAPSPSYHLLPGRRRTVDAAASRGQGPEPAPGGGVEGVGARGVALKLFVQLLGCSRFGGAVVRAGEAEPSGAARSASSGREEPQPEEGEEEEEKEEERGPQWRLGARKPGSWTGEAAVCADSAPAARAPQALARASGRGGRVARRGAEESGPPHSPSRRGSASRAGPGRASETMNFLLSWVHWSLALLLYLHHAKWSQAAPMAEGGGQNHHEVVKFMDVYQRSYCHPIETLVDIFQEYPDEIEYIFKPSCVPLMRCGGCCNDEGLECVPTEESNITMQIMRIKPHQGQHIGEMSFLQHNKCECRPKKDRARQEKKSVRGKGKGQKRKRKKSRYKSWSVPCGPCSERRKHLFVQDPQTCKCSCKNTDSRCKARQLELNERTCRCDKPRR

Binder	HUVEC proliferation, % inhibition [1]	HUVEC proliferation, IC50 [1]	HUVEC proliferation, % inhibition [3]	HUVEC proliferation, IC50 [3]	ka1 [4]	kd1 [4]	kd(fast) [5]	kd(slow) [5]	HUVEC Erk phosphorylation, % inhibition [6]	HUVEC Erk phosphorylation, IC50 [6]	HUVEC proliferation, % inhibition [7]	HUVEC proliferation, IC50 [7]	further results
VEGFBII23B04 (VHH, not shown: small tags and cut ends, also purified from E. coli TG1; also called VEGFBII23B4; VEGFBII23B04 (wt)) VHH: EVQLVESGGGLVQTGDSLRLSCEVSGRTFSSYSMGWFRQAQGKEREFVVAISKGGYKYDSVSLEGRFTISKDNAKNTVYLQINSLKPEDTAVYYCASSRAYGSSRLRLADTYEYWGQGTQVTVSS	91%	0.36 nM	92%	0.68 nM	210000 M⁻¹ s⁻¹	0.0086 s⁻¹	0.0088	4e-05					HUVEC Erk phosphorylation, IC50 [2]: 0.37 nM
VEGFBII038 (VHH) VHH: DVQLVESGGGLVQPGGSLRLSCAASGRTFSSYSMGWFRQAPGKEREFVVAISKGGYKYDAVSLEGRFTISRDNAKNTVYLQINSLRPEDTAVYYCASSRAYGSSRLRLADTYEYWGQGTLVTVSS			92%	0.6 nM									
VEGFBII024 (VHH, not shown: small tags and cut ends) EVQLVESGGGLVQTGDSLRLSCEVSGRTFSSYSMGWFRQAQGKEREFVVAISKGGYKYDSVSLEGRFTISKDNAKNTVYLQINSLKPEDTAVYYCASSRAYGSSRLRLADTYEYWGQGTQVTVSSGGGGSGGGGSGGGGSGGGGSGGGGSGGGGSGGGGSGGGGSEVQLVESGGGLVQAGGSLRLSCTASGSAFKSYRMGWFRRTPGKEDEFVASISWTYGSTFYADSVKGRFTMSRDKAKNAGYLQMNSLKPEDTALYYCAAGAQSDRYNIRSYDYWGQGTQVTVSS									94%	0.23 nM	96%	0.38 nM	
VEGFBII022 (VHH, not shown: small tags and cut ends) EVQLVESGGGLVQTGDSLRLSCEVSGRTFSSYSMGWFRQAQGKEREFVVAISKGGYKYDSVSLEGRFTISKDNAKNTVYLQINSLKPEDTAVYYCASSRAYGSSRLRLADTYEYWGQGTQVTVSSGGGGSGGGSEVQLVESGGGLVQPGGSLRLSCVASGIRFMSMAWYRQAPGKHRELVARISSGGTTAYVDSVKGRFTISRDNSKNTVYLQMNSLKAEDTAVYYCNTFSSRPNPWGAGTQVTVSS									94%	0.18 nM	100%	0.34 nM	
VEGFBII23A06 (VHH, not shown: small tags and cut ends, also purified from E. coli TG1; also called VEGFBII23A6; 23A6) VHH: EVQLVESGGGLVQPGDSLKLSCAFSGRTFSSYSMGWFRQAQGKEREFVVAISSGGFIYDAVSLEGRFTISRDNTKNTVYLQTPSLKPEDTAVYYCAASRAYGSSRLRLADTYDYWGQGTQVTVSS	73%	4.29 nM			420000 M⁻¹ s⁻¹	0.057 s⁻¹	0.017	3.7e-05					
VEGFBII24C04 (VHH, not shown: small tags and cut ends, also purified from E. coli TG1; also called VEGFBII24C4) VHH: EVQLVESGGGLVQPGDSLKLSCVASGRTSSSYSMGWFRQAQGKEREFVVAISSGGYIYDSVSLQGRFTISRDNTKNTVYLQTPSLKPEDTAVYYCAASRAYGSSRLRLADTYDYWGQGTQVTVSS	79%	3.8 nM			320000 M⁻¹ s⁻¹	0.026 s⁻¹	0.013	3.4e-05					binding result [8]: no binding (tested: 500 nM)
VEGFBII037 (VHH) VHH: DVQLVESGGGLVQPGGSLRLSCAASGRTFSSYSMGWFRQAPGKEREFVVAISKGGYKYDAVSLEGRFTISRDNAKNTVYLQMNSLRPEDTAVYYCASSRAYGSSRLRLADTYEYWGQGTLVTVSS			78%	1.54 nM									
VEGFBII023 (VHH, not shown: small tags and cut ends) EVQLVESGGGLVQTGDSLRLSCEVSGRTFSSYSMGWFRQAQGKEREFVVAISKGGYKYDSVSLEGRFTISKDNAKNTVYLQINSLKPEDTAVYYCASSRAYGSSRLRLADTYEYWGQGTQVTVSSGGGGSGGGGSGGGGSGGGGSGGGGSGGGGSGGGGSGGGGSEVQLVESGGGLVQAGGSLRLSCAASGRTFSNYAMGWFRQAPGKERVLVADISSSGINTYVADAVKGRFTISRDNAKNTVYLQMNSLKPEDTAVYYCAASAWWYSQMARDNYRYWGQGTQVTVSS									100%	0.25 nM	98%	0.52 nM	
VEGFBII025 (VHH, not shown: small tags and cut ends) EVQLVESGGGLVQAGGSLRLSCAASGRTFSNYAMGWFRQAPGKERVLVADISSSGINTYVADAVKGRFTISRDNAKNTVYLQMNSLKPEDTAVYYCAASAWWYSQMARDNYRYWGQGTQVTVSSGGGGSGGGGSGGGGSGGGGSGGGGSGGGGSGGGGSGGGGSEVQLVESGGGLVQTGDSLRLSCEVSGRTFSSYSMGWFRQAQGKEREFVVAISKGGYKYDSVSLEGRFTISKDNAKNTVYLQINSLKPEDTAVYYCASSRAYGSSRLRLADTYEYWGQGTQVTVSS									99%	0.23 nM	104%	0.41 nM	
